Results published in the supplement of paper PMC9732359.
± gives the uncertainty stated by the source.

Test: protein stability index of a GFP-peptide fusion (yeast GPS) (PSI 1-4); higher = more stable; sorted into four equal gates, so the index is relative within each strain
Summary of the method: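 Peptides tiling yeast proteins in 17-residue segments were fused downstream of GFP, with Cherry expressed from the same plasmid. As a pooled library in yeast, mid-log cultures grown in leucine-free medium were sorted into four equal gates by GFP/Cherry fluorescence ratio. Gate plasmids were PCR-amplified and Illumina-sequenced, and barcodes linked reads to strains. Each peptide received a protein stability index equal to the sum of each gate's read frequency times its gate number.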

Sequence | protein stability index (doa10∆) | protein stability index (pdr5∆) | protein stability index (san1∆) | protein stability index (ubr1∆)
SGNSANNMNVNMNLNPQ [GAL11] | 2.85 ± 0.046 | 2.87 ± 0.042 | 2.73 ± 0.033 | 2.93 ± 0.034
IKLDIVVGQNQLIDQFE [SNF5] | 1.88 ± 0.075 | 2.07 ± 0.098 | 2.11 ± 0.092 | 2.25 ± 0.085
VSKMEKAEKTLKSTKHS [SMC4] | 2.69 ± 0.052 | 2.42 ± 0.044 | 2.33 ± 0.042 | 2.83 ± 0.031
MLRTVTSKTVSNQFKRS [COR1] | 3.11 ± 0.15 | 2.9 ± 0.092 | 2.92 ± 0.083 | 3.02 ± 0.1
STFGFNNSAPNNTNNAN [YJL041W/NSP1] | 3.13 ± 0.042 | 3.18 ± 0.047 | 2.96 ± 0.039 | 3.19 ± 0.038
IKRTDEGGEAEFIFGTY [ARP7] | 3.35 ± 0.093 | 3.3 ± 0.11 | 3.37 ± 0.056 | 3.36 ± 0.045
NRVPDGFQDRSLPHFPK [RPO31] | 3.29 ± 0.16 | 2.86 ± 0.15 | 3.02 ± 0.11 | 3.6 ± 0.2
STLLCTDLESKSRMINF [SNU114] | 2.62 ± 0.05 | 2.96 ± 0.052 | 2.67 ± 0.044 | 2.79 ± 0.038
FDPSRIKDLKQREDKLK [SMC2] | 2.66 ± 0.087 | 2.88 ± 0.18 | 2.99 ± 0.28 | 2.92 ± 0.13
KSDSQYRFYEYIYSQET [MED1] | 2.81 ± 0.068 | 2.44 ± 0.061 | 2.74 ± 0.12 | 2.58 ± 0.07
KEISARRYKLLTATPNS [POP1] | 2.1 ± 0.051 | 2.45 ± 0.061 | 2.32 ± 0.06 | 2.5 ± 0.051
YGIFGEGVEYSFLHVDD [POP8] | 2.25 ± 0.084 | 2.31 ± 0.072 | 1.92 ± 0.12 | 2.71 ± 0.049
GFGRKGKAKGDIPGVRF [RPS23A] | 3.19 ± 0.14 | 3.23 ± 0.13 | 3.42 ± 0.052 | 3.22 ± 0.094
NEMLLKRVTKVKRLLFT [MTW1] | 1.26 ± 0.054 | 1.56 ± 0.049 | 1.21 ± 0.11 | 1.42 ± 0.036
LSVEIGVLTDISSLIGG [NUT1] | 1.32 ± 0.13 | 1.95 ± 0.11 | 1.89 ± 0.25 | 2.18 ± 0.12
EEGRAIPGEYITYALSG [RPS21B] | 2.99 ± 0.073 | 3.1 ± 0.11 | 2.88 ± 0.078 | 2.96 ± 0.044
AKKLIQSLPPTLKVNRL [RPL38] | 2.15 ± 0.039 | 2.2 ± 0.039 | 2.02 ± 0.048 | 2.27 ± 0.036
TAILQRQLQYETLGDIL [ECM29] | 2.62 ± 0.086 | 3.31 ± 0.12 | 2.73 ± 0.098 | 3.02 ± 0.097
ESSSEDDYEDQDDDDYV [IRR1] | 3.58 ± 0.16 | 3.52 ± 0.11 |  | 3.65 ± 0.16
TTDKLRSMVRKWQTLIE [RPS1A] | 2.72 ± 0.17 | 2.46 ± 0.15 |  | 
KETAPVIDTLAAGYGKI [RPL28] | 1.96 ± 0.088 | 2.71 ± 0.12 | 2.13 ± 0.21 | 2.53 ± 0.083
APNTLTNILISPLNTTT [YML103C/NUP188] | 2.23 ± 0.062 | 2.13 ± 0.057 | 2.03 ± 0.086 | 1.82 ± 0.045
DSNYKWDLSVEDALYLG [PRE2] | 3.34 ± 0.085 | 3.35 ± 0.082 | 3.33 ± 0.07 | 3.39 ± 0.049
KLNDSQRKTVNSDDILS [POP1] | 2.3 ± 0.075 | 1.99 ± 0.1 | 2.38 ± 0.087 | 2.89 ± 0.093
PSTSSNMDVGNPRKRKA [GAL11] | 2.65 ± 0.18 | 2.25 ± 0.12 | 2.75 ± 0.12 | 3.27 ± 0.088
LNRSHFATTKAECISLI [ECM29] | 1.51 ± 0.061 | 2 ± 0.051 | 1.69 ± 0.092 | 1.66 ± 0.038
AIVVGWRAIIKAIFPNT [FAS1] | 2.44 ± 0.1 | 2.71 ± 0.14 | 2.41 ± 0.086 | 2.33 ± 0.15

Sequence | protein stability index (doa10∆) | protein stability index (pdr5∆) | protein stability index (san1∆) | protein stability index (ubr1∆)
RKMTTDDDINWQELARS [RPT5] | 1.79 ± 0.055 | 2.93 ± 0.072 | 3.16 ± 0.097 | 3 ± 0.07
KAEMPPEHLRKIINTHS [PRP8] | 1.94 ± 0.089 | 1.74 ± 0.058 | 1.82 ± 0.12 | 1.89 ± 0.061
YVMERPKNVPTSKWLNS [YDL116W/NUP84] | 2.61 ± 0.057 | 2.75 ± 0.055 | 2.63 ± 0.072 | 2.82 ± 0.043
DRCVDPEDPYFNTLVRI [DIS3] | 3.39 ± 0.11 | 3.41 ± 0.11 | 3.48 ± 0.058 | 3.4 ± 0.048
LKPSMSVALHRHSNALV [RPT3] | 1.64 ± 0.11 | 2.41 ± 0.15 | 2.51 ± 0.15 | 2.53 ± 0.22
ETIKSLEDPYKYHYKEE [CSN9] | 3.17 ± 0.09 | 3.13 ± 0.082 | 3.09 ± 0.07 | 3.14 ± 0.06
LYKFQNFQDLSYLSETL [YML103C/NUP188] | 2.94 ± 0.091 | 2.87 ± 0.08 | 2.64 ± 0.12 | 2.49 ± 0.11
FMDNSYDIDEIDHSDES [ESC2] |  |  | 2.66 ± 0.14 | 2.82 ± 0.13
EANWPLPVNIRRIIQNA [RPO21] | 1.77 ± 0.088 | 1.37 ± 0.089 |  | 1.04 ± 0.064
HFLQFSELAGDEELEAE [PRP8] | 3.33 ± 0.15 | 3.11 ± 0.27 |  | 
NSNQQQNPKLFQTIFSK [SIN4] | 1.98 ± 0.093 | 2.19 ± 0.069 | 3.11 ± 0.1 | 2.42 ± 0.082
VKTPKKTKYILQRPTAT [CSN12] | 2.89 ± 0.069 | 3.03 ± 0.076 | 2.6 ± 0.079 | 2.43 ± 0.21
LALINYGRQELADDLIT [RPN2] |  | 1.82 ± 0.26 | 1.57 ± 0.28 | 1.49 ± 0.14
TDVEKSDPAAKKTATEP [SRP21] | 3.2 ± 0.11 | 3.02 ± 0.085 | 3.32 ± 0.046 | 3.18 ± 0.096
LLENFANFKTSKKYQLA [RRP6] | 2.09 ± 0.25 | 2.57 ± 0.2 | 2.27 ± 0.21 | 2.33 ± 0.17
KLISAFDDLEVEELPTF [RRP42] | 2.57 ± 0.06 | 2.84 ± 0.05 | 2.5 ± 0.066 | 2.85 ± 0.036
ADAVTKDLKLRREDEII [REC8] | 3.08 ± 0.11 | 3.31 ± 0.1 | 3.3 ± 0.065 | 3.03 ± 0.062
MSNVVQARDNSQVFGVA [RPS14A] | 1.89 ± 0.06 | 2.11 ± 0.056 | 1.94 ± 0.083 | 2.05 ± 0.041
DSLASELTLAEQQVKEA [SMC4] | 3.24 ± 0.21 | 3.53 ± 0.11 | 3.23 ± 0.15 | 3.39 ± 0.23
KTVCAIALILAIQMVDP [SMC3] | 1.11 ± 0.092 | 1.1 ± 0.072 | 2.08 ± 0.23 | 1.87 ± 0.081
NVDQTKTQCPNYDTCGG [RPC11] | 3.48 ± 0.13 | 3.15 ± 0.18 | 3.06 ± 0.08 | 3.21 ± 0.093
DVPSEDDPTQLVSRGGC [RPO21] | 3.61 ± 0.28 | 3.06 ± 0.15 | 2.97 ± 0.21 | 3.01 ± 0.15
GPENALNVYHYFGENSS [YJL039C/NUP192] | 2.05 ± 0.032 | 2.05 ± 0.042 | 2.06 ± 0.053 | 2.65 ± 0.031
NRKIYQFTLYDRELNEV [SMC3] |  | 2.62 ± 0.11 | 2.76 ± 0.13 | 2.98 ± 0.095
NGGDKELEMIGGTNEDD [YCS4] | 3.25 ± 0.22 | 2.79 ± 0.21 | 2.46 ± 0.22 | 3.05 ± 0.27
SKLPDPERWLPLRDRST [SRP72] | 2.09 ± 0.067 | 2.91 ± 0.068 | 2.55 ± 0.077 | 2.46 ± 0.058
PKMKDEEYDDDDDNSNV [SNF2] | 3.4 ± 0.095 | 3.37 ± 0.16 | 3.23 ± 0.072 | 3.27 ± 0.15

Sequence | protein stability index (doa10∆) | protein stability index (pdr5∆) | protein stability index (san1∆) | protein stability index (ubr1∆)
PPPAPHNLHPQIGQVPL [SNF5] | 2.96 ± 0.059 | 2.94 ± 0.053 | 2.8 ± 0.045 | 3.01 ± 0.042
FVSRPDRTMLAPMDFAI [FAS1] | 2.68 ± 0.12 | 2.82 ± 0.11 | 2.63 ± 0.11 | 2.68 ± 0.11
KSKLDQDSTSENVKIIN [RPN2] | 3.39 ± 0.07 | 3.3 ± 0.065 | 2.97 ± 0.074 | 3.18 ± 0.08
IPSLANNGNNSTSIQYH [POP6] | 2.45 ± 0.054 | 2.95 ± 0.06 | 2.47 ± 0.066 | 2.59 ± 0.046
DIGKGAETTFLQDVIAL [RPC53] | 2.52 ± 0.073 | 2.31 ± 0.1 | 2.38 ± 0.11 | 2.71 ± 0.056
VRELVEKIDGMDVDSVK [RPC82] | 2.99 ± 0.19 | 3.41 ± 0.27 | 3.34 ± 0.11 | 3.3 ± 0.064
YYGLVIDLLLLGQERAT [PRP8] | 1.76 ± 0.083 | 1.26 ± 0.053 | 1.23 ± 0.11 | 1.38 ± 0.039
KEEISDQKPIEHIKEGS [SWI3] | 2.96 ± 0.053 | 2.82 ± 0.051 | 2.88 ± 0.063 | 3 ± 0.04
STSGDPSEFHCLQDALD [SSN2] | 3.07 ± 0.16 | 3.1 ± 0.12 | 3.08 ± 0.068 | 3.43 ± 0.11
AVSKDPLLTKRKDLRDK [DIS3] | 2.97 ± 0.14 | 3.41 ± 0.13 | 2.78 ± 0.22 | 3.25 ± 0.14
KNISSQLDSKLMVFNDD [YGR119C/NUP57] | 2.12 ± 0.041 | 2.54 ± 0.052 | 2.24 ± 0.056 | 2.08 ± 0.029
DSQDYILSINAIDYEPE [SMC1] | 3.25 ± 0.068 | 3.06 ± 0.058 | 3 ± 0.046 | 3.02 ± 0.038
QQQDQPEQSEQPEQHQD [RPN10] | 3 ± 0.052 | 3.12 ± 0.053 | 2.85 ± 0.046 | 3.24 ± 0.059
KSTPEGTLWAHVLKTVD [SNU114] | 2.1 ± 0.058 | 1.93 ± 0.048 | 2.43 ± 0.072 | 2.27 ± 0.038
ISVSSRSDREYPLLIRM [SRP14] | 2.56 ± 0.097 | 2.44 ± 0.1 | 1.94 ± 0.13 | 2.34 ± 0.072
VELLDSNDRVNPLIELT [ITC1] | 3.58 ± 0.11 | 2.5 ± 0.11 | 3.28 ± 0.075 | 3.02 ± 0.069
PIMFQDFDDSTAQEINF [IRR1] | 2.81 ± 0.057 | 2.92 ± 0.059 | 2.52 ± 0.053 | 2.88 ± 0.043
PQIRQEIEQLDQYIQKQ [YGL172W/NUP49] | 2.7 ± 0.061 | 2.76 ± 0.046 | 2.54 ± 0.054 | 2.78 ± 0.049
LQQKQRDLILKKGEYAR [SMC3] | 2.3 ± 0.12 | 2.42 ± 0.14 | 2.5 ± 0.29 | 2.71 ± 0.072
RVLETTLVEFETIKMKE [BRN1] | 2.12 ± 0.22 | 3.23 ± 0.14 |  | 1.34 ± 0.086
SSQLNKLTDEQSSLDVA [SIR3] | 2.66 ± 0.088 | 2.93 ± 0.081 | 2.65 ± 0.09 | 2.97 ± 0.056
NDFKKIGRENENENEDD [POP5] | 3.22 ± 0.11 | 3.28 ± 0.097 | 3.16 ± 0.067 | 2.79 ± 0.11
SKQVQVSQQPLSRGYTC [ECM29] | 2.83 ± 0.074 | 2.76 ± 0.091 | 2.44 ± 0.061 | 2.92 ± 0.052
ITRFGLSKMRDSVLQLA [RPO31] | 3.32 ± 0.14 | 2.96 ± 0.14 | 3.17 ± 0.08 | 3.44 ± 0.15
VGQAGRPKKITGWITQS [RPN1] | 1.99 ± 0.059 | 2.27 ± 0.075 | 2.21 ± 0.12 | 2 ± 0.044
